Molecular target: 40S-containing ribosomal complexes
Assay: co-sedimentation

percent of 40S-ribosomal complexes associated with DHX29: 10%
B1: DExH-box protein DHX29 (enzyme)
chain: MGGKNKKHKAPGAAAVRAAVSASRAKSAEAAAAGEAQSKKPVARPPPAAAAGAREPRVKQGPKIYSFNSANDSGGPANVDKSILKVVINNKLEQRIIGVINEHKKQNNDKGMISGRLTAKKLQDLYMALQAFSFKTKDIEDAMTNTLLHGGDLHSALDWLCLNLSDDALPEGFSQEFEEQQAKSRPKFQAPQIQATISPPLQPKIKKQEEDPKIKPKKEDKNMEVNMKEWILQYAERQKEEEKSESSKSLEEEEKFDPNERYLHLAAKFLDAKEQAAAFKLEKNKQGQKEAQEKIRKFQREMETLEDHPVFNPAIKISYQQNERKKPPVATEGESSLNFNLFEKSAAPTEEEKDKKKEPHDVRNFDYTARSWTGKSPKQFLIDWVRKNLPKSPNPSFEKVPVGRYWKCRVRVIKSEDDVLVVCPAILTEDGMQAQHLGATLALYRLVKGQSVHQLLPPTYRDVWLEWSDAEKKKEELNKMETNKPRDLFIAKLLNKLKQQQQLQQQHSENKKENSEDPEESWENLVSEEDFSALSLESAVAEDLEPVRNLFRKLQSSPKYQRLLKERQQLPVFKHRESIVETLKRHRVVVVAGETGSGKSTQVPHFLLEDLLLNEWGTSKCNIICTQPRRISAVSLATRVCDELGCENGPGGRNSLCGYQIRMESRASESTRLLYCTTGVLLRKLQEDGLLSNVSHVIVDEVHERSVQSDFLLVILKEILQKRSDLHLILMSATVDSEKFSTYFTHCPILRISGRSYPVEVFHLEDIIEETGFVLEKDSEYCQKFLEEEEEITINVTSKAGGIKKYQEYIPVQTGTTADLNPLYQKYSNRTQHAILYMNPHKINLDLILELLVYLDKSPQFRNIEGAVLIFLPGLAHIQQLYDLLSNDRRFYSERYKVIALHSILSTQDQAAAFTLPPPGVRKIVLATNIAETGITIPDVVFVIDTGRTKENKYHESSQMSSLVETFVSKASALQRQGRAGRVRDGFCFRMYTRERFEGFMDYSVPEILRVPLEELCLHIMKCNLGSPEDFLSKALDPPQLQVISNAMNLLRKIGACELNEPKLTPLGQHLAALPVNVKIGKMLIFGAIFGCLDPVATLAAVMTEKSPFTTPIGRKEEADLAKSALAIADSDHLTIYNAYLGWKKAQQEGGYRSELAYCRRNFLNRTALLTLEDVKQELMKLVKAAGFSSTTSNNWEGNRASQTLSFQEIALLKAVLAAGLYDNVGKIIYTKSVDVTEKLACIVETAQGKAQVHPSSVNRDLQTYGWLLYQEKIRYARVYLRETTLITPFPVLLFGGDIEVQHRERLLSIDGWIYFQAPVKIAVIFKQLRVLIDSVLRKKLENPKMSLENDKILQIITELIKTENN
